{"source": "patent US20220259593A1", "about": "“CONTROL OF MAMMALIAN GENE DOSAGE USING CRISPR” (The Regents of the University of California, priority 2019, published 2022)", "molecules": {"B1": {"name": "cr985 (nucleic acid)", "guide": "GTTTAAGAGCTAAGCTGGAAACAGCATAGCAAGTTTAAATAAGGCTAGTCCTTTATCAACTTGAAAAAGTGGCACCGAGTCGGTGCT", "modifications": "listed as DNA, chemistry not fully specified"}, "B2": {"name": "cr538 (nucleic acid)", "guide": "B1 guide with T34C, G44A, C50T, T52G", "modifications": "listed as DNA, chemistry not fully specified"}, "B3": {"name": "cr288 (nucleic acid)", "guide": "B1 guide with G33C, T52G, T62G, A67C", "modifications": "listed as DNA, chemistry not fully specified"}, "B4": {"name": "cr483 (nucleic acid)", "guide": "B1 guide with T52G, T62A, A67T, A74G, C75T, G83A, T84C", "modifications": "listed as DNA, chemistry not fully specified"}, "B5": {"name": "cr739 (nucleic acid)", "guide": "B1 guide with G33C, T52G, T61G, A68C", "modifications": "listed as DNA, chemistry not fully specified"}, "B6": {"name": "cr087 (nucleic acid)", "guide": "B1 guide with G1C, A5G, T52G", "modifications": "listed as DNA, chemistry not fully specified"}, "B7": {"name": "cr082 (nucleic acid)", "guide": "B1 guide with G1C, T2G, T52G", "modifications": "listed as DNA, chemistry not fully specified"}, "B8": {"name": "cr727 (nucleic acid)", "guide": "B1 guide with T52G, G72T, A74G, T84C, C86A", "modifications": "listed as DNA, chemistry not fully specified"}, "B9": {"name": "cr762 (nucleic acid)", "guide": "B1 guide with A32C", "modifications": "listed as DNA, chemistry not fully specified"}, "B10": {"name": "cr411 (nucleic acid)", "guide": "B1 guide with G44A, T52G", "modifications": "listed as DNA, chemistry not fully specified"}, "B11": {"name": "cr580 (nucleic acid)", "guide": "B1 guide with A38G, T52G", "modifications": "listed as DNA, chemistry not fully specified"}, "B12": {"name": "cr401 (nucleic acid)", "guide": "B1 guide with T52G, A74T, G82T, T84C", "modifications": "listed as DNA, chemistry not fully specified"}, "B13": {"name": "cr084 (nucleic acid)", "guide": "B1 guide with T3C, A5G, T52G", "modifications": "listed as DNA, chemistry not fully specified"}, "B14": {"name": "cr714 (nucleic acid)", "guide": "B1 guide with T34C, T52G, C60A, G69T", "modifications": "listed as DNA, chemistry not fully specified"}, "B15": {"name": "cr588 (nucleic acid)", "guide": "B1 guide with G33C, T52G, C73T, G85A", "modifications": "listed as DNA, chemistry not fully specified"}, "B16": {"name": "cr453 (nucleic acid)", "guide": "B1 guide with A39C, T52G", "modifications": "listed as DNA, chemistry not fully specified"}, "B17": {"name": "cr325 (nucleic acid)", "guide": "B1 guide with G33C, T52G, A59G, T70C", "modifications": "listed as DNA, chemistry not fully specified"}, "B18": {"name": "cr062 (nucleic acid)", "guide": "B1 guide with T4C, A8T, T52G", "modifications": "listed as DNA, chemistry not fully specified"}, "B19": {"name": "cr791 (nucleic acid)", "guide": "B1 guide with G43A, C51T, T52G, G77C, C81G", "modifications": "listed as DNA, chemistry not fully specified"}, "B20": {"name": "cr513 (nucleic acid)", "guide": "B1 guide with G33C, T52G, A59C, T70G", "modifications": "listed as DNA, chemistry not fully specified"}, "B21": {"name": "cr290 (nucleic acid)", "guide": "B1 guide with T52A, G71T", "modifications": "listed as DNA, chemistry not fully specified"}, "B22": {"name": "cr112 (nucleic acid)", "guide": "B1 guide with G43A, C45T, G48A, C51T, T52G, C60T, G69A", "modifications": "listed as DNA, chemistry not fully specified"}, "B23": {"name": "cr038 (nucleic acid)", "guide": "B1 guide with A5G, A6C, T52G", "modifications": "listed as DNA, chemistry not fully specified"}, "B24": {"name": "cr066 (nucleic acid)", "guide": "B1 guide with G1A, T4C, T52G", "modifications": "listed as DNA, chemistry not fully specified"}, "B25": {"name": "cr582 (nucleic acid)", "guide": "B1 guide with A42C, A47T, T52G, G63C", "modifications": "listed as DNA, chemistry not fully specified"}, "B26": {"name": "cr796 (nucleic acid)", "guide": "B1 guide with T36A, T52G", "modifications": "listed as DNA, chemistry not fully specified"}, "B27": {"name": "cr438 (nucleic acid)", "guide": "B1 guide with A31C, A42C, T52G, A55G", "modifications": "listed as DNA, chemistry not fully specified"}, "B28": {"name": "cr461 (nucleic acid)", "guide": "B1 guide with T54A, A66G", "modifications": "listed as DNA, chemistry not fully specified"}, "B29": {"name": "cr257 (nucleic acid)", "guide": "B1 guide with A41C, T52G, G71T", "modifications": "listed as DNA, chemistry not fully specified"}, "B30": {"name": "cr059 (nucleic acid)", "guide": "B1 guide with T2G, G7A, T52G", "modifications": "listed as DNA, chemistry not fully specified"}}, "note": "Numbering of substitutions follows the chain as printed."}
{"test_system": "K562 CRISPRi cells", "assay": "Constant region variant library pooled growth screen, K562", "assay_type": "cell-based, human", "details": "sgRNA constant region variants; activity relative to the original, un-modified constant region cr995", "in_short": "(§1)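 Relative activity expresses each targeting sequence:constant region pair's phenotype over that of the unmodified constant region. Pooled growth screen ran in K562 CRISPRi cells in duplicate spinner-flask replicates, with puromycin selection and 4–8 days' growth at >2000× coverage; library paired variants with 36 targeting sequences.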"}
{"molecule": "B1", "Mean relative activity": 0.07562}
{"molecule": "B2", "Mean relative activity": 0.1104}
{"molecule": "B3", "Mean relative activity": 0.1016}
{"molecule": "B4", "Mean relative activity": 1.037}
{"molecule": "B5", "Mean relative activity": 0.08764}
{"molecule": "B6", "Mean relative activity": 0.1041}
{"molecule": "B7", "Mean relative activity": 0.0741}
{"molecule": "B8", "Mean relative activity": 1.037}
{"molecule": "B9", "Mean relative activity": 0.0885}
{"molecule": "B10", "Mean relative activity": 0.1086}
{"molecule": "B11", "Mean relative activity": 0.1076}
{"molecule": "B12", "Mean relative activity": 0.09781}
{"molecule": "B13", "Mean relative activity": 0.09372}
{"molecule": "B14", "Mean relative activity": 0.09294}
{"molecule": "B15", "Mean relative activity": 0.07507}
{"molecule": "B16", "Mean relative activity": 0.09528}
{"molecule": "B17", "Mean relative activity": 0.09143}
{"molecule": "B18", "Mean relative activity": 0.1003}
{"molecule": "B19", "Mean relative activity": 0.07648}
{"molecule": "B20", "Mean relative activity": 0.0947}
{"molecule": "B21", "Mean relative activity": 0.1027}
{"molecule": "B22", "Mean relative activity": 0.0933}
{"molecule": "B23", "Mean relative activity": 0.07321}
{"molecule": "B24", "Mean relative activity": 0.09115}
{"molecule": "B25", "Mean relative activity": 0.07315}
{"molecule": "B26", "Mean relative activity": 0.096}
{"molecule": "B27", "Mean relative activity": 0.06886}
{"test_system": "K562 CRISPRi cells", "assay": "Constant region variant library pooled growth screen, K562", "assay_type": "cell-based, human", "details": "sgRNA constant region variants; activity relative to the unmodified constant region cr995", "in_short": "as §1"}
{"molecule": "B28", "Mean relative activity": 0.1147}
{"molecule": "B29", "Mean relative activity": 0.1109}
{"molecule": "B30", "Mean relative activity": 0.1106}
